The values below come from patent US20090175847A1.

One test deals with Aβ(1-42) fibrils (human) (UniProt P05067). As to the kind of experiment: co-pelleting with Aβ(1-42) fibrils (20 h, 37 °C), SDS-PAGE, densitometry of the antibody heavy chain in pellet and supernatant.
The target of test [1] is Aβ(1-42) monomer (human). As to the kind of experiment: dot blot densitometry; antigen: Aβ(1-42) monomer, 0.1% NH4OH.
Test [2] addresses Aβ(1-42) monomer (human). As to the kind of experiment: dot blot densitometry; antigen: Aβ(1-42) monomer, 0.1% NaOH.
The target of test [3] is Aβ(1-42) globulomer (human) (UniProt P05067). As to the kind of experiment: dot blot densitometry; antigen: Aβ(1-42) globulomer.
Aβ(1-42) globulomer (human), sequence (P05067 672-713 limits assumed): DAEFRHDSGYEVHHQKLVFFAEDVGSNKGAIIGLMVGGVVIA

Aβ(1-42) fibrils (human), sequence (P05067 672-713 limits assumed): as above
Aβ(1-42) monomer (human), sequence (peptide, as listed by the source): as the sequence (P05067 672-713 limits assumed) above

Substance “IgG2a antibody isotype control made against KLH (Keyhole Limpet Hemocyanin)” returned an antibody bound to fibrils [%] with Aβ(1-42) fibrils (human) of 9%.

In the case of “mouse monoclonal antibody 6E10 (Signet No 9320)”, the figures for the relation between recognition of Aβ(20-42) globulomer and the respective Aβ form (in the test with Aβ(1-42) monomer (human) [1]; with Aβ(1-42) monomer (human) [2]; in test [3]) were 1, 1 and 0.02, respectively. This substance displayed an antibody bound to fibrils [%] with Aβ(1-42) fibrils (human) of 91%.
